In patent US20110086041A1:

Assays:
T20 peptide = experiment: SPR, 2F5 Fab immobilized, T20 flowing
[1] = target: 92UG-gp41-post (HIV-1 isolate 92UG037.8); experiment: SPR, 2F5 Fab immobilized, 92UGgp41-post flowing
[2] = target: 92UG-gp41-inter-Fd (HIV-1 isolate 92UG037.8); experiment: SPR, told of the gp41-inter proteins as a group
[3] = target: HXB2-gp41-inter-GCN4 (HIV-1 isolate HXB2) (UniProt P04578); experiment: SPR, told of the gp41-inter proteins as a group
[4] = target: 92UG-gp41-inter-Fd (HIV-1 isolate 92UG037.8); experiment: SPR, 92UGgp41-inter-Fd immobilized, 2F5 Fab flowing
[5] = target: short 2F5 epitope peptide; experiment: SPR, 2F5 Fab immobilized, 2F5 epitope peptide flowing
[6] = target: short 2F5 epitope peptide; experiment: SPR, 2F5 epitope peptide immobilized, 2F5 Fab flowing
[7] = target: 92UG-gp41-inter-Fd (HIV-1 isolate 92UG037.8); experiment: SPR, 2F5 Fab immobilized, 92UGgp41-inter-Fd flowing, 1:1 Langmuir model
[8] = target: HXB2-gp41-inter-GCN4 (HIV-1 isolate HXB2) (UniProt P04578); experiment: SPR, 2F5 Fab immobilized, HXB2gp41-inter-GCN4 flowing, 1:1 Langmuir model
[9] = target: 92UG-gp41-inter-Fd (HIV-1 isolate 92UG037.8); experiment: SPR, told of the gp41-inter proteins as a group; Table 1 ties this value to 92UGgp41-inter-Fd
[10] = target: 92UG-gp41-inter-Fd (HIV-1 isolate 92UG037.8); experiment: SPR, 2F5 Fab immobilized, 92UGgp41-inter-Fd flowing; dissociation phase virtually flat, actual off-rate probably slower
[11] = target: HXB2-gp41-inter-GCN4 (HIV-1 isolate HXB2) (UniProt P04578); experiment: SPR, 2F5 Fab immobilized, HXB2gp41-inter-GCN4 flowing; dissociation phase virtually flat, actual off-rate probably slower
[12] = target: monomeric 92UG-gp120 core protein (HIV-1 isolate 92UG037); experiment: SPR, b6 IgG immobilized, 92UG gp120 flowing, single analyte concentration
[13] = target: 92UG-gp140-Fd trimer (HIV-1 isolate 92UG037.8); experiment: SPR, 92UGgp140-Fd immobilized, 2G12 Fab flowing, 1:1 Langmuir model
[14] = target: monomeric 92UG-gp120 core protein (HIV-1 isolate 92UG037); experiment: SPR; told with a reference to Rits-Volloch et al. 2006 and FIG. 6C
[15] = target: monomeric 92UG-gp120 core protein (HIV-1 isolate 92UG037); experiment: SPR, b12 IgG immobilized, 92UG gp120 flowing, single analyte concentration
[16] = target: biotinylated 4E10 epitope peptide; experiment: SPR, biotinylated 4E10 epitope peptide on SA chip, 4E10 scFv flowing
[17] = target: 92UG-gp41-inter-Fd (HIV-1 isolate 92UG037.8); experiment: SPR, 92UGgp41-inter-Fd immobilized on CM-5, 4E10 scFv flowing at 50 nM, single concentration
[18] = target: HXB2-gp41-interf-GCN4 (HIV-1 isolate HXB2) (UniProt P04578); experiment: SPR, His-4E10 scFv on Ni-NTA chip, HXB2gp41-interf-GCN4 flowing at 50 nM, single concentration

Fab fragment of mAb 2F5
Kd (T20 peptide): 4.79 nM
koff (T20 peptide): 0.00217 s⁻¹
kon (T20 peptide): 454000 M⁻¹ s⁻¹
Kd [1]: 1410 nM
koff [1]: 0.00243 s⁻¹
kon [1]: 1660 M⁻¹ s⁻¹
Kd [2]: < 10 nM
Kd [3]: < 10 nM
Kd [4]: 3.24 nM
koff [4]: 0.000496 s⁻¹
kon [4]: 153000 M⁻¹ s⁻¹
Kd [5]: 3.83 nM
koff [5]: 0.00329 s⁻¹
kon [5]: 859000 M⁻¹ s⁻¹
Kd [6]: 5.33 nM
koff [6]: 0.0015 s⁻¹
kon [6]: 282000 M⁻¹ s⁻¹
Kd [7]: 1.38 nM
kon [7]: 10000 M⁻¹ s⁻¹
Kd [8]: 8.96 nM
kon [8]: 6820 M⁻¹ s⁻¹
koff [9]: < 1.4e-05 s⁻¹
koff [10]: 1.39e-05 s⁻¹
koff [11]: 6.11e-05 s⁻¹

mAb b6 whole IgG (antibody)
Kd [12]: 2.69 nM
koff [12]: 0.000151 s⁻¹
kon [12]: 56200 M⁻¹ s⁻¹

Fab fragment of broadly neutralizing antibody 2G12
Kd [13]: 17.9 nM
koff [13]: 0.000958 s⁻¹
kon [13]: 53500 M⁻¹ s⁻¹

mAb b12 whole IgG (antibody)
Kd [14]: 1400 nM
Kd [15]: 993 nM
koff [15]: 0.0149 s⁻¹
kon [15]: 15000 M⁻¹ s⁻¹

4E10 single-chain Fv fragment (scFv)
Kd [16]: 18.6 nM
koff [16]: 0.000685 s⁻¹
kon [16]: 36900 M⁻¹ s⁻¹
Kd [17]: 1.07 nM
koff [17]: 0.000171 s⁻¹
kon [17]: 160000 M⁻¹ s⁻¹
Kd [18]: 2.98 nM
koff [18]: 0.000443 s⁻¹
kon [18]: 149000 M⁻¹ s⁻¹
